# Target: taxol-stabilized microtubules (control, undigested, with E-hooks) (porcine) (UniProt P02550)
# Sequence (P02550 whole entry, chain 1 of 2): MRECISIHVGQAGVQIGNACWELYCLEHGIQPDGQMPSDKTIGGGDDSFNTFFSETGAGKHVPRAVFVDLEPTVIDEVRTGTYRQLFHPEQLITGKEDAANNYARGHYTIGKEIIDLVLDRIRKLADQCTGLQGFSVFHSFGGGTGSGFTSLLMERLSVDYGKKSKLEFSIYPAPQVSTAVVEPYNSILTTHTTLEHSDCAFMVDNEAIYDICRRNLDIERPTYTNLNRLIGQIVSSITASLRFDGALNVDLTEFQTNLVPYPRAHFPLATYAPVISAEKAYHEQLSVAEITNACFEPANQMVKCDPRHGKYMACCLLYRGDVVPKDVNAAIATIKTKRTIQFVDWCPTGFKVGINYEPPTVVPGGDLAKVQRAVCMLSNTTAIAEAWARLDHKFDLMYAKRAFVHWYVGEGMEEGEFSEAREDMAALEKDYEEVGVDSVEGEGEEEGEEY
# Sequence (chain, as listed by the source, chain 2 of 2): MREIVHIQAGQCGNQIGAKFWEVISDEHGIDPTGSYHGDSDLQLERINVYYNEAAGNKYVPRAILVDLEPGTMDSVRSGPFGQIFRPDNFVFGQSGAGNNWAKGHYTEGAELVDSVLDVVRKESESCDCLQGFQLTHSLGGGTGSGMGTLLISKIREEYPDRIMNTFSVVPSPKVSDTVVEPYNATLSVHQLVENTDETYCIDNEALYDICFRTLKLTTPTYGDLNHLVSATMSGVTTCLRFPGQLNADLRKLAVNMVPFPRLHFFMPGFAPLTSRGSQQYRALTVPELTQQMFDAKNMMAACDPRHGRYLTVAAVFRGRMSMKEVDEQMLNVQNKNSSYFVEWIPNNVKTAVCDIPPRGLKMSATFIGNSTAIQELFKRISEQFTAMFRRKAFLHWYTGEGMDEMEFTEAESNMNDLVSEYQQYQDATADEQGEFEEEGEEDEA
substance,measurement,value
"GST–dynein331, artificially dimerized (via glutathione S-transferase) dynein motor domain fragment, P36022 1-4092","K m(MT) of the microtubule-stimulated ATPase activity of GST–dynein331 (0–2 µM microtubules), with 200 nM She1",0.04 µM
same,"K m(MT) of the microtubule-stimulated ATPase activity of GST–dynein331 (0–2 µM microtubules), without She1",0.1 µM
